Experimental findings from PMC5916030 are described below.

Data set [1] deals with anthrax lethal factor (LF) (Bacillus anthracis, UniProt P15917 34-809). The experiment in a line: […]) immobilized in 20 mM HEPES pH 7.4, […].
Target sequence in this assay (P15917 34-809): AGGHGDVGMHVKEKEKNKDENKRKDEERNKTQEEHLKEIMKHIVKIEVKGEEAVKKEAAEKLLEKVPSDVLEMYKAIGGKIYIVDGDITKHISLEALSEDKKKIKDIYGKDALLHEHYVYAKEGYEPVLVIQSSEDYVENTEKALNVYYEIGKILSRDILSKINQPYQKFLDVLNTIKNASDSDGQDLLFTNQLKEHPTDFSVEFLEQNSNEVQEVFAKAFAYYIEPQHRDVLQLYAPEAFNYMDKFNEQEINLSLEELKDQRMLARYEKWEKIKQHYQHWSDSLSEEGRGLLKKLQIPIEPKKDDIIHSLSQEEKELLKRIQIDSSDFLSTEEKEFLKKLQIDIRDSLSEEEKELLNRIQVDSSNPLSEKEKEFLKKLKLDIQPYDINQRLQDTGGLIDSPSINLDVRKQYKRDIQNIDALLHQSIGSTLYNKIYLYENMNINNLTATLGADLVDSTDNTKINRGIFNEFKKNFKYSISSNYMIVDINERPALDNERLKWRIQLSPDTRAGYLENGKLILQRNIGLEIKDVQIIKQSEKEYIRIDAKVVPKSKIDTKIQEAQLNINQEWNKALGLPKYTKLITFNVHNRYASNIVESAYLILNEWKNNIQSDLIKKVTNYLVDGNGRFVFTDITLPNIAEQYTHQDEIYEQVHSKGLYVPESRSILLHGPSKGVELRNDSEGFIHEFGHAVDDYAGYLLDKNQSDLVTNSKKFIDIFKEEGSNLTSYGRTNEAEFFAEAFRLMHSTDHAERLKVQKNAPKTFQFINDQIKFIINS
For data set [2] the target is unchanged. The experiment in a line: aptamer ELISA.
Target sequence in this assay (P15917 34-809): as above

B1: ML7 (ssDNA)
DNA: GGAGAGAGGGAGACGCGCAACCTCGACCCGT
In the case of B1, the binding result in data set [1] is “no binding”.

B2: scramble 30-mer (ssDNA)
DNA: CGCACTGAAGTGGGATACCGCCTAAACGGA
For the molecule B2, the binding result in data set [2] is recorded as “no binding”.

B3: ML6 (ssDNA)
DNA: GGACCAGCCGCCGCGCCTTGACCGGGGGTA
Take B3: in data set [1], the binding result was “no binding”.
